Experiment: soluble on expression in E. coli; label from the status in PepcDB or PDB records

Sequence	soluble on expression in E. coli
GPGSMERYAFAEDYKNARGIPRVEYISDMATFVKNNGGADALISRLILDSSKYEHTEKRLVSSMANLDHKIPTIKKTLHALNFLKKRLQEDQTPVRSYYCLTDAVFGEAEVVPQETVHLWMGAKVMVEYTFDEALQLLEKNLANAETNLKATKEDLAWVQEQMTNLQINISRVYNYDLKNKRTNGGAAEPSA	soluble
MPIKIPDNLPAKEILTKENIFVMAESRAYSQDIRPLKIVILNLMPIKQTTETQLLRLLGNTPLQVEVSFMYTDTHISKNTSYDHLQTFYQTIDEVKQKKFDGMIITGAPIETLPYDEVDYWNELKQIMEWSKTNVTSTLHICWGAQAGLFYHYGVEKVPLPEKQFGVYPHKINVPNVKLLRGFDDEFYVPHSRHTDINKAQIEAHPDLEILSESEQAGVYIVASKDGKQIFVTGHSEYDACTLQQEYERDRARGLNIQVPENYFPNDDATRKPLLRWRAHSYLLFSNWLNYYVYQETPYDLSRMAGDPLEHHHHHH	soluble
SSVWNLGRLNHVAIAVPDLEKAAAFYKNILGAQVSEAVPLPEHGVSVVFVNLGNTKMELLHPLGLDSPIAGFLQKNKAGGMHHICIEVDNINAAVMDLKKKKIRSLSEEVKIGAHGKPVIFLHPKDCGGVLVELEQA	soluble
MYETYHSGWIECITGSMFSGKSEELIRRLRRGIYAKQKVVVFKPAIDDRYHKEKVVSHNGNAIEAINISKASEIMTHNLTNVDVIGIDEVQFFDDEIVSIVEKLSADGHRVIVAGLDMDFRGEPFEPMPKLMAVSEQVTKLQAVCAVCGSSSSRTQRLINGKPAKIDDPIILVGANESYEPRCRAHHIVAPSDNNKEEL	not soluble
GPGSMAATTEVTPEHVLQLTAPSTGFLCPITANTYNIEFYSFVVRDADTKQVMFEVERDASTYPSVASLAQLPEEQQQAARTIFYRFPPSMLRKQRVSATLLFGVNGDKPVPDLRMIERHYFRNTLVKTFDFKFGFCIPHSRNTWEAVYDVPQFNAEWLEAIEKGTNEMTSDSFYFADGRLIMHNRAFYDYSAPEEEFTK	soluble
MHHHHHHAADPPPVHDTDGHELRADANYYVLSANRAHGGGLTMAPGHGRHCPLFVSQDPNGQHDGFPVRITPYGVAPSDKIIRLSTDVRISFRAYTTCLQSTEWHIDSELAAGRRHVITGPVKDPSPSGRENAFRIEKYSGAEVHEYKLMSSGDWCQDLGVFRDLKGGAWFLGATEPYHVVVFKKAPPA	soluble
SLQMKNYQQTLKRMSDRSSGFLGVGVHKQKLGIGAIAIVVTDKDGEIVDCEMMSGVTVFSRFKPLTDFVGMSLNECKVLLQNESVDIALHGALKKIEEQMNRKENVTT	soluble
EVVVTGMQKMDKRLFTGAATKLDAEGVKLNGMADISRGLEGRAAGVSVQNVSGTFGTAPKIRVRGATSIYGSSKPLWVVDGVIMEDAVEVSADQLSSGDAETLISSAIAGLNADDIESFQILKDGSATSIYGARAMAGVIVVTTKKGK	not soluble
MEITDVRIRKIDSEGKMKAVVSVTFDNEFVVHDIKVIESQNGLFIAMPSRKAPDGEFRDIAHPINAETRSKIQTAILDKYESICAGSTETEGNN	soluble
MAESDWDTVTVLRKKGPTAAQAKSKQAILAAQRRGEDVETSKKWAAGQNKQHSITKNTAKLDRETEELHHDRVTLEVGKVIQRGRQSKGLTQKDLATKINEKPQVIADYESGRAIPNNQVLGKIERAIGLKLRGKDIGKPIEKGPKAK	soluble
MDWVRLLSRLVQAESLPGEEGEAAGLLLEALKGMGLEATLDEAGNIEALLGEKGPEVVLTGHMDVVPVGDPARWPYPQGAVAEGSLWGRGAVDMKGSLVAMLLALETLARGALKGRVRFLAVVQEEVGGLGSRFAAERLSPLAFVLGEPSSGRLMRGHRGRRKVWADFEGRETHAALAGPENPLFDLGAYLLALQDLPLPPGVKLTPTRVDTHPGARNQTPGVVRLYLDVRYEPEADLDGLLAALRTLGPASVYLPEEERASGEVRMTLPALWPPYRLPEDHPLLQAALQALGQEEAGLWPFTTDAPYLGAKAPVLGLGPGDPALAHTPMEHVPLRAVEEAAQAYVRLVEALWNAD	soluble
METLSNIQCFVRSAEAGSFAEAARRLGLTPAGVGKNVARLESNLGVRLFQRSTRRLTLTEAGERFLQEVGGSLEGIQTALANVSSVGNQPSGTLKVSMGLAFGRDYILPLLGEFLERYPDIVPDWHFDNRQVDLIGEGFDAAIGGGFELPPGVVARNLTPGHLILLASPTYLRDKPPIRHPGDLGGFDGIRIRSPQTGRVRSWPLRRRNGEEAPIELRERMTMSDPEATCEVAAMGLGITLVCMQHAYAYLESGALVRVLPDWYVDAGNTSLYYAANKLLPAKTRVFVDFVVDYFRRQDLARRFSAFPTG	not soluble
MPKVAILIYSVDDIIATLAENEKKGIEIAGGEAEIFQVPDVSYKTEYATEEGKEAAKVAKTNADFSYKILTRETLVEYDYYLFGIPTKFGNFPAEWKSFWDSNTGGLWAKGSLHGKIAGLFVSGAISGKGDTEMCIMNAMSTLVHHGVIYVPLGYKNAYKELTDVEDVNGSCAWGAGCVSGIDGGRPPSLSELRVHQLQGKAFYDRIKDL	not soluble
MKRAPFLCKQSPDRTLEVVILAGSLAWETSRVWRKDPDREDDVPPMVLGPNELADLSNLTIIRPDTLYVRVLRTGDISEEDLLKIAVKLAHAGVQMARLMSPDGELLENWTGQLERLRQERPSDILPDHFRLDEEALWFDKLTERRDGESDVQPQRICSPLRVTAITCDSHDGSYGRLLEWHTTTGQLRRWAMPMAMLSGNGEELRRILLENGLTNISTRPALRSLLCEYISRSLPGRRVTCVEKTGWHNGVYVLPDEVIGPDGDNVILQGSHYLTGGFAQAGTLAEWQEQVAALCAGNSRLVFAVCCALAAPLLRLTGTGGGGFHLRGESTDGKTTVMKVAASVCGGTDYWHSWRATGNALEGIASRHNDALLPLDELREVDPREAGMIAYMLANGQGKGRARTDGEVRNRRHWTLLLEHHHHHH	not soluble
MSHSVPNALMTGADYLDSLRDGRQVYLNGERVADVTRHRAFRNACRSIAGLYDGLHGEQRDVLTRVDAQGRRSHRFFTPAQNAEDLLGAREAIGCWSRMTYGFMGRTPDYKAAFMSGLEAGAGFYGDYRHNACAWHRAFADRGLFLNHAIINPPLDRSKAIHEMRDVFVHVERETDQGIVVSGAKMLATGSAITNATFVAPVASAQMEAGKAEDFAVVFFARMDNPGLRLMCRPSYEERASSPFDYPLSSRFDENDSVLLFDKALIPWEDVLVYRDLRRATGFYAESGFANLYNFQSGIRLGVKLELMIGLLSLGVRANGTQSFRGIQAALGELIALQHLLQALTTAMARDPERNAAGSAVPRLEYANALRIQVPQIWKRVRELLESALGGAPLVTVSGAADLRDGEARRLVDSYYRGAELEPEQRLKLFKLIWDATGSEFGARHAVYESHYSGNAEQIRLDSLAWASRRGHLAYCEAMVQRCMADYDIHGWLRGPWQHD	not soluble
MGSDKIHHHHHHMRNTAVAEQPASVPAMSRLTRQRLHDTVVEYLRDYIVKGVLAPGVKLNERELCETLGISRTPLREAIKVLAAEGLIEISANRGAAVTKLAESEIDEMFELMSGLEAFAGELACERITPHEIAEIKALHYAMVACREREDLSGYYGYNQQIHDRINGAARNCALRQTYLSINRRLQAMRFKSNFHKSKRDHAVHDHEEMIKALESRDGKRLSAILRQHLLDKRDVVLVTLATARETPATGGR	not soluble
MGSDKIHHHHHHMSSHLAHGMGTEPVEPDWPPLTEAEVADVVGPSRVVWRSPRPLSAAAVVERGGRRLFVKRHHLSVRTPEGLAEEHAFLRHLRERGAPVVEVLDVATRQEWVYEVHSAGLGTDLYRDDLSWSPFRSSTHARAAGAALARLHLAADGFEAPRRIPQPLVASFTIFAADDPGTALERYVAERPALAGALADHPWRADTRRVLLPLFERLAPHLPLLEPLWTHNDWHASNLLWDASGEVSTVLDFGMSDRTTAVHDLATAIERNAVQWLQPGFPVREQDVDALLDGYQSVRPLTVSESAALPELLPLVHAEFALSEMGYFHGITGSAENTRLAYAYLVDHAEWFTGDAGSHLVDRVRHRAAAAPKPPPAGRPLSDASS	not soluble
IQVFLSARPPAPEVSKIYDNLILQYSPSKSLQMILRRALGDFENMLADGSFRAAPKSYPIPHTAFEKSIIVQTSRMFPVSLIEAARNHFDPLGLETARAFGHKLATAALACFFAREKATNS	soluble

Reference: the DeepSol protein solubility set
